Experimental data: the DeepSol protein solubility set

Test: soluble on expression in E. coli; label from the status in PepcDB or PDB records
In the case of “MGSDKIHHHHHHMNKEHICFDFDSNPAFQTIDYEVAARSFVPGYESIFNMAVALLDASVPEPAHLLIVAAGGGMELITFGQARSHWLFTGVDPSAKMLAIAQEKVAKQGLTNRVKLHQGLTHELPVTTLYDAATCILAMHFLPDDGAKLLLLQSISQRLKPGAKLILVDLCEEKGSERFNDFLKAYKYHARNLGMSPEIVEETASKVVHIHCISEERTIELLQEANFSKITRFFTALWFRGWIATKNT”, the “soluble on expression in E. coli” value is reported as “not soluble”. With “MGSDKIHHHHHHMNLEEVLNYRRSVRVFDKTKPLDPEKVKHCLELATLAPNSSNMQLWEFYQVIQPELLAKISKACLDQTATSTASEVVVFVTRQDLYRIRAKFVLDFERGNVRRNSPKERQEKRIKDRELYYGKLMPFLYARFFRILGLLRSVLAKAIGLFRPIVREVSESDMRVVVHKSCALAAQTFMIAMANEGYDTCPLEGFDSKQMKKLLKLPHGAEVNMVIACGIRDGNKGIWGERGRVPFDEVYHRV” the “soluble on expression in E. coli” value was “not soluble”. With “MGSDKIHHHHHHMNLKLDHIIHYLHQLESFKFPGEILELQNGGRHHHLGTFNQIAPIKNSYIELLDVENESKLSNIAKTEEGRVSFATKIVQDHFKQGFKGICFRTKDINQVKSTLENRGVDVIGPIDMERENKKGHQIRWRLLYIANPDYTVKPPFFIEWDNNKKQNLSQIHNFNLSSFKIKEVIITSTQRETTVSLWKEWYNLKIVNETATSTDLKLETDEVIYKIEDGKDSGFHTLIMTDINATAPYSIFIRGAKYRFEPPN” the “soluble on expression in E. coli” value was “not soluble”. With “MGSDKIHHHHHHMNLNIAICDDDTNDIAIMKKNILQYTIETDNNIVVSSYFSASDILSDYKNHLYQIVLLDIEMPDINGMELARQLRDMDDDLLIIFTTSYPEYMHESFEVQPFQFITKPVDYTAIYKLFNNIIKKLYRNSKSIVIIDTDGEKNFVPLSDLLYISSMKENKLHLRYQLTDRALISKGTLSEAEKRLSSHGFVSPSRGFLVNLHQIRSITSTRLLLNNGFELPISRRRSKELQNIYSQHIINIL” the “soluble on expression in E. coli” value was “not soluble”. In the case of “MGSDKIHHHHHHMNMAHDEQRWLSPRLQKAAALCNQAPAASESPLWLGIDLGTCDVVSMVVDRDGQPVAVCLDWADVVRDGIVWDFFGAVTLVRRHLATLEQQLGCRFTHAATSFPPGTDPRISINVLESAGLEISHVLDEPTAVADLLQLDNAGVVDIGGGTTGIAIVKQGRVTYSADEATGGHHISLTLAGNRGIGLEEAEQYKRSHAGEIWPVVKPVYEKMAEIVARHIAGQGIVDLWLAGGACMQPGVHELFRQRFPALPVHLPQHSLFMTPLAIANSGREKAEGMYAS”, the “soluble on expression in E. coli” value is reported as “not soluble”. In the case of “MGSDKIHHHHHHMNNIIATGFNTASTDGELDSLERELRRLEAIGVDTVELALSSLDLIAGGRIVKERGDRLRTLLETFSFRYTVHGLVSSNFMDPATRRHQVDAAKALVEICDSIDARVLVQHAGFLRADQIAQRAGADERQCEALLELGEHAKAYGIRIAFENIFTTEPGQYRQTPAEVAATVKAVNHPDVVALIDFSHAYLESNYRGLDFRDQLRAMAPVLGAPGRRLSRRTATTRIVVITDGGMECSTGWTS”, the “soluble on expression in E. coli” value is reported as “not soluble”. In the case of “MGSDKIHHHHHHMNNIQAIRKKVETQIDDLQNKTDEIAEFNQAKVLDAFQENKVSDFHFHPSTGYGYDDEGRDTLERVYATVFKTEAALVRPQIISGTHAISTVLFGILRPDDELLYITGQPYDTLEEIVGIRKQGQGSLKDFHIGYSSVPLLENGDVDFPRIAKKMTPKTKMIGIQRSRGYADRPSFTIEKIKEMIVFVKNINPEVIVFVDNCYGEFVEYQEPPEVGADIIAGSLIKNPGGGLAKTGGYIAGKEALVDLCGYRLTTPGIGREAGASLYSLLEMYQGFFLAPHVTAQAIKGARFTAAMLAEFGVEADPVWDAPRTDLIQSVSFHNKEKMVAFAQAIQAASPVNAHVLPIGAYMPGYEDDVIMAAGTFIQGASLELTADGPIREPYQLYVQGGLTYEHIKIAVTRAIQKIV”, the “soluble on expression in E. coli” value is reported as “not soluble”. With “MGSDKIHHHHHHMNQIIPTSANGCIPNVYFMGRWTTQTVESKPAMYTTNLGAQILFEVQNADYFTLEAVINPLSAPQTLSIYIDDELHLTPLTRSKNDFKLSSNQSHIVRIYFTGNTDQDEIWLGNDGLTIKDITIASGTLAAIKPAGPLVAFIGDSITAGCWVRSKAPSIGYGADLNYAAQLSRALDWEDYRIAYSAAGIIRYGTGGVPPAGKFVKYVNFSVKAPRINPDLVLINLGTNDARYEDDVFEMYFVWFINEVKKQFPHARIIIITPFNQAHSHVIKNVAKALKIELIPTLDWVIETNDEVHPNVEGSKAISDHLVAWFTEPQNRLQSE” the “soluble on expression in E. coli” value was “not soluble”. For “MGSDKIHHHHHHMNQNVTSKVYPWQQTMWETLTTRFPNIGHGLLFYGKQGCGKHAFAKHFLAWVLCLNKQPQGACGECSSCQWLKSDTHPNYVHITTDEENKKQNAKIKIEKIRDLLPFVQQTGEGWRVVVIEPAEALNLASSNALLKTLEEPGERVVLILLADHYLKLPATIRSRLQHFALDRISYTEATSYLNEHLAETASVPAELLLGLSNDMPLQAVEIATSDWFAKRQSFLEDWTKVVNQKNMPLFYSAKWQKELNFSDFMMLLEYLLGDLICVKLNQPQKNIDLQFDQLAQNYNLESLFSLYEELQQSKRLVEQNVQTQLIIDQLFIKLMNV”, the “soluble on expression in E. coli” value was “not soluble”. In the case of “MGSDKIHHHHHHMNQSNCIVAQSGGPTVAINASLAGVIAGVKSSEKYDICYGAVNGILGILNENYLNLSDIFADDANLEKLKTTPAMYLGSCRHKLPDYKDDDSPYVYIFHQFDKLSIKAFFYIGGNDSMDTVLKLSDYAKKINSDVKIIGIPKTIDNDLCMTDHTPGFGSAAKYIASSMLEIAHDTFIYAVKSVTIVEIMGRDAGWLTAASALARNEYNTAPQFIYLPEVNFDKDKFVADIKEALAHTNNVIVAVSEGIHDADGSYITSSKAACDQFGHQQLSGAGKALEFIVKENIGVKVRSVEVNVLQRCASHLASLTDIEESFAQGKKGVTIAAEGVTASMVCLKRISNKPYQVEYTYSAIKDIANEAKSVPREWINDAGNDVKPELIEYLKPLIQGETAVAYKNGLPDYMDVSHLHKCN”, the “soluble on expression in E. coli” value is reported as “not soluble”. With “MGSDKIHHHHHHMNRRRIALLLPRLGRYGGVEQFAWHLAEALAQRGHEVDFICARKEGEAPAGVRPVVVGRKGGLKVLKALHYLVQAERMRRRGDYDLTVSFGKTWEQDILRVGGGPLSTFWQLSGEAWPKGPRRTLKCLTRHLSPYNWLTHIIERRQYDGHCKIICVSDAVRGWTLQAFPSLAATPPEVIYNRPQLERFTPAPDTGRAACRERFSIPAGHVAIGTASSNFILKGVGHLIHALSLLPPHFMLLVAGGRNPGPFMDVARKLGVSDRVRFLGRVDDMPAFYNAIDVFALNTFYDACSNAVLEALACGTPALSTTRNGSSRFLPEAWVTDAPDDPADLAARLAALASEERTEGFAWPEDVKAGIPAWVERIEREMESGIRRG” the “soluble on expression in E. coli” value was “not soluble”. In the case of “MGSDKIHHHHHHMNTAPFKLEADFASALPTMAAPWQGEEAPNPELVILNDDLAYSLGLDPTWLRTPEGVQFLLGLNPEPLTKAVAQAYSGHQFGQFVASLGDGRALLLGEARSADGVLHDIHLKGSGRTQFSRGADGRAVLGPVLREYIISEAMHALGVPTTRSLAVISTGRKIQRGSVAPGAVLVRVATSLIRVGSFQYSNISGGIELSQHLANYTITRHFPSLVAELSAPTPATYVSLFKAILQRQADTVGKWTRLGFVHGALNTDNTLISGETVDYGPCAFMERYRGDAKFSSIDTYGRYKFENQPMILGWNMARLVETLLPLLGATPDEGMTAAQEALVEFDDLCEQAIRKEFATALGLDESDTGTVEQFRELLYLHNPDITTLLRALTDNTAPPSGFEAFVHDWKTQDPDIEAMRAVNPLFIPRNHLVEAALADAVEGNLEKFHELLAAVTNPFDPTAGPDELRLPSEEGFEEDYMTFCGT”, the “soluble on expression in E. coli” value is reported as “not soluble”. In the case of “MGSDKIHHHHHHMNTYIKILLGTCCSFSILSCSNNLDETVYSKVTEQTYNYTVDDFTPSIASVYSYLRSQSDHWGYFCAQEVSADAIVMPPNASGWDDGGAYRRMHYQTWNSEQDHVKNIWSWFYQGALLCNKIIEQIKTGVIPTPSDTEKTQGLAELRAMRAYYYWQICDNFGDAPLVTTTAMDLPAKNTRREIFDFVENELIEVIPNLSEEVGGNYYGRMTKWAAKALLANLYLNAQVYINEARWNDCITQCDDIINSGKFTLAENYKDLFRALGVESCKEIIFTIPYDENFATGNSIFMFSWHGELKKKYNTIDTPWGCGSAMGVTQFIDTYNEKDSRLADTWLMGQQLAADGTPLYGTYDKMGEPLIYTKDIPSGNYTSELEGYRMNKFEVAENSYSSSNTDIPVFRYAEIMMMKAECLLRTGKSGAGTLVTQVRQRAFKDNPELATVTDSQLAGNTCYQYGYVEDYKIVDRGNTDPIQFGRMYDELGWEFAWEMHRRRDAIRFGIYTTKSWLSHKPEGDYRSVFPIPETVLTSNPNLEQNPNYL”, the “soluble on expression in E. coli” value is reported as “not soluble”. In the case of “MGSDKIHHHHHHMPAAATLADWKAASVPDFLAERSRQELARLGNPGWWGPPDLEALAELMQLAAAEGWRILPAGRGTRLDWGGLGHPVDAVISTAACDRLIEHAAADLTVTVEAGMTLGQLQTILAETGQWLPFDPIAGESSSLGALVSTGMSGSLRHRYGSLRDFLIGITFLRHDGQWAKGGGRVVKNVAGYDMMKLLHGAWGSLGLIGKLTFRTYPLPNAWGTIACQGDREAILQLRSQLVRSDLTPVAFDLLSPAAAAELELRSQWTVLLRFGSVAASVQEQQQVVELQATRLGLAAMTVAEPVWGQLNQSFEPRSRSATLIKFALLPSQLPCLLAELEAIAPTALGRVHAASGAGWLVWPEAEPTVETLLRLRRHCEVAEGFLSVLAASVSLKQQLDIWGYPGQGLAVMRAIKRQFDPQSRLAPGRFLAGLEE”, the “soluble on expression in E. coli” value is reported as “not soluble”. With “MGSDKIHHHHHHMPAFPLNAWYAAAWDADIKHALFPRTICGKHVVMYRKADGTVAALEDACWHRLVPLSKGRLEGDTVVCGYHGLKFNPQGRCTYMPSQETINPSACVRSYPVVERHRFVWLWMGDPVLADPALVPDMHWNDDPAWAGDGKTIYAKCDWRLVVDNLMDLTHETYVHGSSIGNEAVAEAPFDVTHGDRTVTVTRWMKGIEPPPFWAAQLGKPGLVDRWQIIRFEAPGTVTIDVGVAPAGTRAPEGDRSQGVNGFVLNTMTPETDTTCHYFWAFVRNYRLSEQRLTTEIREGVSGIFREDEIILEAQQRAMLENPDRVFYNLNIDAGAMWSRKLIDRMVAQESAPKLQAAE” the “soluble on expression in E. coli” value was “not soluble”. In the case of “MGSDKIHHHHHHMPASDVIIAGSGPAGAMLARDLTRAGASVRILERGGETPASAPNLWKLWRRKEALHVAPGVALLRGTRVGGGSTVFYHTAISPPLEMFSHHGVEMAQDLAAVLAELPHQPLQAPLLGPTAQRIIDAARSLGLPWQTLPKMIDQELCGHGDCPPAAFWSAASLLAQAMQLGAELETGIQVNRVLFQNGRAVGVEALQKGQLRRFMGGTVILSAGGVASPVILQRSGIREAGRGFFCDPLRVGVAIGRGNGLQEAEMPMTAGFVDREAGYMLTDMTVPPNFYRAFAWAAGRVDMLAHYRHSMMIMVKIRDEISGEVNANGRVWRHFSAAEKNRMRNGMGLAADILRAAGGRRIFFSPWLAAHPGGSVRLGELLDERLSCCTPNLHVCDASVIPEPWGLPPTLTVLSLAKYLGRILLG”, the “soluble on expression in E. coli” value is reported as “not soluble”. With “MGSDKIHHHHHHMPDNANIAASHTQAHGSSYDDKPTQPQCDSIKLNEIGPNLLEPRAIEPSATKPNAIKHESVITKQKQKVIFIGLPRTGTTSVSVALLEQGLKVAHMAFTKEAFMQADAISDAPCFSDFKQLDELFPKAKFVYLDRELDSWVPSMQMLLSRMLPHLDAKIGRFHPIMKRSFRHTFGVGVVENPQDEQHLIDCYQHHKTEVFNYFAGRQDLLSIDVSQQGALGQLLAFMELTSAENHNLSFPKLNVGRNVASWDEYKHPNKISANAAGPEKRKYFDYKV” the “soluble on expression in E. coli” value was “not soluble”.
